Test system: Escherichia coli TOP10
Assay: shrunken log2 fold change of peptide-encoding DNA abundance (4.5 h post-induction vs induction); higher = less antimicrobial activity (less host growth inhibition)
Details: time post-induction: 4.5 h; library: site-saturation at positions 5, 18, 19, 20
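Further: peptides expressed intracellularly from a pBAD plasmid library in pooled LB shake-flask culture, induced with 0.3% L-arabinose, DNA abundance read by NGS, three biological replicates, DESeq2 with apeglm shrinkage.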

Row | Sequence | shrunken log2 fold change
1 | RRIRCRPPRLPRPRPRPTQEPRP | 0.121
2 | RRIRHRPPRLPRPRPRPWCRPRP | -0.352
3 | RRIRTRPPRLPRPRPRPTGDPRP | 0.475
4 | RRIRARPPRLPRPRPRPIEGPRP | 0.504
5 | RRIRMRPPRLPRPRPRPRYSPRP | -0.342
6 | RRIRPRPPRLPRPRPRPYWRPRP | -0.106
7 | RRIRRRPPRLPRPRPRPQTKPRP | 0.161
8 | RRIRLRPPRLPRPRPRPPIAPRP | 0.192
9 | RRIRHRPPRLPRPRPRPHMAPRP | -0.0236
10 | RRIRDRPPRLPRPRPRPTEGPRP | -0.0161
11 | RRIRDRPPRLPRPRPRPIYHPRP | -0.827
12 | RRIRARPPRLPRPRPRPTQYPRP | 0.116
13 | RRIRMRPPRLPRPRPRPTMEPRP | 0.868
14 | RRIRCRPPRLPRPRPRPNAPPRP | 0.367
15 | RRIRRRPPRLPRPRPRPFMPPRP | -0.00307
16 | RRIRWRPPRLPRPRPRPILVPRP | 0.0752
17 | RRIRCRPPRLPRPRPRPSIFPRP | -0.575
18 | RRIRNRPPRLPRPRPRPCEMPRP | 0.019
19 | RRIRERPPRLPRPRPRPQNQPRP | -0.612
20 | RRIRFRPPRLPRPRPRPTVSPRP | -0.00542
21 | RRIRDRPPRLPRPRPRPQCKPRP | 0.0759
22 | RRIRRRPPRLPRPRPRPHMFPRP | 0.119
23 | RRIRPRPPRLPRPRPRPVMAPRP | -0.128
24 | RRIRMRPPRLPRPRPRPKQQPRP | 0.48
25 | RRIRGRPPRLPRPRPRPGCRPRP | 1.16

Row | Sequence | shrunken log2 fold change
26 | RRIRHRPPRLPRPRPRPCCVPRP | -0.193
27 | RRIRNRPPRLPRPRPRPGPRPRP | 0.641
28 | RRIRHRPPRLPRPRPRPMNHPRP | -0.738
29 | RRIRNRPPRLPRPRPRPFMDPRP | 0.0237
30 | RRIRFRPPRLPRPRPRPDEGPRP | 0.101
31 | RRIRWRPPRLPRPRPRPVHSPRP | -0.37
32 | RRIRDRPPRLPRPRPRPQQHPRP | 0.0276
33 | RRIRMRPPRLPRPRPRPGLSPRP | 0.795
34 | RRIRTRPPRLPRPRPRPAHMPRP | -0.0928
35 | RRIRLRPPRLPRPRPRPCHDPRP | -0.116
36 | RRIRWRPPRLPRPRPRPNHCPRP | -0.0525
37 | RRIRGRPPRLPRPRPRPTWTPRP | 1.18
38 | RRIRTRPPRLPRPRPRPQNAPRP | -0.12
39 | RRIRYRPPRLPRPRPRPFLQPRP | -0.218
40 | RRIRHRPPRLPRPRPRPTWPPRP | 0.25
41 | RRIRKRPPRLPRPRPRPKVLPRP | 0.0605
42 | RRIRARPPRLPRPRPRPLGHPRP | 0.134
43 | RRIRERPPRLPRPRPRPLVKPRP | -0.575
44 | RRIRWRPPRLPRPRPRPMAIPRP | -0.198
45 | RRIRYRPPRLPRPRPRPYRLPRP | -0.173
46 | RRIRLRPPRLPRPRPRPECLPRP | -0.00237
47 | RRIRKRPPRLPRPRPRPWYYPRP | -0.198
48 | RRIRFRPPRLPRPRPRPWHAPRP | -0.162
49 | RRIRVRPPRLPRPRPRPDEHPRP | 0.0107
50 | RRIRLRPPRLPRPRPRPDNCPRP | -0.0891

Row | Sequence | shrunken log2 fold change
51 | RRIRNRPPRLPRPRPRPVIGPRP | -0.00814
52 | RRIRTRPPRLPRPRPRPHKDPRP | -0.973
53 | RRIRWRPPRLPRPRPRPVELPRP | -0.00876
54 | RRIRLRPPRLPRPRPRPPKLPRP | 0.252
55 | RRIRQRPPRLPRPRPRPTDQPRP | 0.411
56 | RRIRDRPPRLPRPRPRPNDMPRP | -0.104
57 | RRIRLRPPRLPRPRPRPRQNPRP | 0.108
58 | RRIRARPPRLPRPRPRPWNHPRP | -0.128
59 | RRIRARPPRLPRPRPRPLRRPRP | 1.15
60 | RRIRERPPRLPRPRPRPDGPPRP | 0.115
61 | RRIRIRPPRLPRPRPRPPWPPRP | 0.397
62 | RRIRDRPPRLPRPRPRPDRFPRP | 0.0112
63 | RRIRSRPPRLPRPRPRPEQEPRP | 0.0257
64 | RRIRWRPPRLPRPRPRPSEYPRP | -0.221
65 | RRIRYRPPRLPRPRPRPLPKPRP | 0.116
66 | RRIRLRPPRLPRPRPRPSQYPRP | -0.504
67 | RRIRERPPRLPRPRPRPGYSPRP | -0.00468
68 | RRIRNRPPRLPRPRPRPEHKPRP | 0.00308
69 | RRIRTRPPRLPRPRPRPQDFPRP | -0.29
70 | RRIRTRPPRLPRPRPRPDAMPRP | 0.248
71 | RRIRWRPPRLPRPRPRPNHHPRP | -0.457
72 | RRIRLRPPRLPRPRPRPCLIPRP | -0.0321
73 | RRIRWRPPRLPRPRPRPLLDPRP | 0.0164
74 | RRIRGRPPRLPRPRPRPIQGPRP | -0.0132
75 | RRIRMRPPRLPRPRPRPQYMPRP | -0.969

Reference: the supplement of paper PMC9112550, “Optimization of the antimicrobial peptide Bac7 by deep mutational scanning” (BMC Biology, 2022)
